Numbered stars: 1 amine (or outer) side, 2 acyl side, 3 side chain; on linkers, the order of the positions; unused ones are H or OH. Bridge positions count the residues as written; N and C are the ends. Side chains are listed from the residue outwards. Ends that are not written are not given here. * marks the point of attachment. C20 diacid = O=C(O)CCCCCCCCCCCCCCCCCCC(=O)*; γGlu = O=C(O)[C@H](CCC(=O)[*:2])N[*:1]

B1: N^ε1-[(4S)--4-carboxy-4-(19-carboxynonadecanoylamino)butanoyl]-[Glu14,Arg17,Pro21,Pro27,Pro37]-h-amylin (peptide)
peptide: K([γGlu-C20 diacid])CNTATCATQRLAEFLRHSSPNFGAIPSSTNVGSNTP-NH2
modifications: disulfide 2-7; N-terminus assumed
SMILES: CC[C@H](C)[C@H](NC(=O)[C@H](C)NC(=O)CNC(=O)[C@H](Cc1ccccc1)NC(=O)[C@H](CC(N)=O)NC(=O)[C@@H]1CCCN1C(=O)[C@H](CO)NC(=O)[C@H](CO)NC(=O)[C@H](Cc1c[nH]cn1)NC(=O)[C@H](CCCNC(=N)N)NC(=O)[C@H](CC(C)C)NC(=O)[C@H](Cc1ccccc1)NC(=O)[C@H](CCC(=O)O)NC(=O)[C@H](C)NC(=O)[C@H](CC(C)C)NC(=O)[C@H](CCCNC(=N)N)NC(=O)[C@H](CCC(N)=O)NC(=O)[C@@H](NC(=O)[C@H](C)NC(=O)[C@@H]1CSSC[C@H](NC(=O)[C@@H](N)CCCCNC(=O)CC[C@H](NC(=O)CCCCCCCCCCCCCCCCCCC(=O)O)C(=O)O)C(=O)N[C@@H](CC(N)=O)C(=O)N[C@@H]([C@@H](C)O)C(=O)N[C@@H](C)C(=O)N[C@@H]([C@@H](C)O)C(=O)N1)[C@@H](C)O)C(=O)N1CCC[C@H]1C(=O)N[C@@H](CO)C(=O)N[C@@H](CO)C(=O)N[C@H](C(=O)N[C@@H](CC(N)=O)C(=O)N[C@H](C(=O)NCC(=O)N[C@@H](CO)C(=O)N[C@@H](CC(N)=O)C(=O)N[C@H](C(=O)N1CCC[C@H]1C(N)=O)[C@@H](C)O)C(C)C)[C@@H](C)O
notes: also called compound 12
B2: N^ε1-[(4S)-4-carboxy-4-(19-carboxynonadecanoylamino)butanoyl]-[Glu14,Arg17,Pro21,Pro27,Pro34,Pro37]-h-amylin (peptide)
peptide: K([γGlu-C20 diacid])CNTATCATQRLAEFLRHSSPNFGAIPSSTNVGPNTP-NH2
modifications: disulfide 2-7; N-terminus assumed
SMILES: CC[C@H](C)[C@H](NC(=O)[C@H](C)NC(=O)CNC(=O)[C@H](Cc1ccccc1)NC(=O)[C@H](CC(N)=O)NC(=O)[C@@H]1CCCN1C(=O)[C@H](CO)NC(=O)[C@H](CO)NC(=O)[C@H](Cc1c[nH]cn1)NC(=O)[C@H](CCCNC(=N)N)NC(=O)[C@H](CC(C)C)NC(=O)[C@H](Cc1ccccc1)NC(=O)[C@H](CCC(=O)O)NC(=O)[C@H](C)NC(=O)[C@H](CC(C)C)NC(=O)[C@H](CCCNC(=N)N)NC(=O)[C@H](CCC(N)=O)NC(=O)[C@@H](NC(=O)[C@H](C)NC(=O)[C@@H]1CSSC[C@H](NC(=O)[C@@H](N)CCCCNC(=O)CC[C@H](NC(=O)CCCCCCCCCCCCCCCCCCC(=O)O)C(=O)O)C(=O)N[C@@H](CC(N)=O)C(=O)N[C@@H]([C@@H](C)O)C(=O)N[C@@H](C)C(=O)N[C@@H]([C@@H](C)O)C(=O)N1)[C@@H](C)O)C(=O)N1CCC[C@H]1C(=O)N[C@@H](CO)C(=O)N[C@@H](CO)C(=O)N[C@H](C(=O)N[C@@H](CC(N)=O)C(=O)N[C@H](C(=O)NCC(=O)N1CCC[C@H]1C(=O)N[C@@H](CC(N)=O)C(=O)N[C@H](C(=O)N1CCC[C@H]1C(N)=O)[C@@H](C)O)C(C)C)[C@@H](C)O
B3: N^ε1-[(4S)-4-carboxy-4-[[(4S)-4-carboxy-4-(19-carboxynonadecanoylamino)butanoyl]amino]butanoyl]-[Glu14,Arg17,Pro21,Pro27,Pro34,Glu35,Pro37]-h-amylin (peptide)
peptide: K([γGlu-γGlu-C20 diacid])CNTATCATQRLAEFLRHSSPNFGAIPSSTNVGPETP-NH2
modifications: disulfide 2-7; N-terminus assumed
SMILES: CC[C@H](C)[C@H](NC(=O)[C@H](C)NC(=O)CNC(=O)[C@H](Cc1ccccc1)NC(=O)[C@H](CC(N)=O)NC(=O)[C@@H]1CCCN1C(=O)[C@H](CO)NC(=O)[C@H](CO)NC(=O)[C@H](Cc1c[nH]cn1)NC(=O)[C@H](CCCNC(=N)N)NC(=O)[C@H](CC(C)C)NC(=O)[C@H](Cc1ccccc1)NC(=O)[C@H](CCC(=O)O)NC(=O)[C@H](C)NC(=O)[C@H](CC(C)C)NC(=O)[C@H](CCCNC(=N)N)NC(=O)[C@H](CCC(N)=O)NC(=O)[C@@H](NC(=O)[C@H](C)NC(=O)[C@@H]1CSSC[C@H](NC(=O)[C@@H](N)CCCCNC(=O)CC[C@H](NC(=O)CC[C@H](NC(=O)CCCCCCCCCCCCCCCCCCC(=O)O)C(=O)O)C(=O)O)C(=O)N[C@@H](CC(N)=O)C(=O)N[C@@H]([C@@H](C)O)C(=O)N[C@@H](C)C(=O)N[C@@H]([C@@H](C)O)C(=O)N1)[C@@H](C)O)C(=O)N1CCC[C@H]1C(=O)N[C@@H](CO)C(=O)N[C@@H](CO)C(=O)N[C@H](C(=O)N[C@@H](CC(N)=O)C(=O)N[C@H](C(=O)NCC(=O)N1CCC[C@H]1C(=O)N[C@@H](CCC(=O)O)C(=O)N[C@H](C(=O)N1CCC[C@H]1C(N)=O)[C@@H](C)O)C(C)C)[C@@H](C)O
B4: N^ε1-[(4S)-4-carboxy-4-(19-carboxynonadecanoylamino)butanoyl]-[His14,Arg17,Pro21,Pro27,Pro34,Pro37]-h-amylin (peptide)
peptide: K([γGlu-C20 diacid])CNTATCATQRLAHFLRHSSPNFGAIPSSTNVGPNTP-NH2
modifications: disulfide 2-7; N-terminus assumed
SMILES: CC[C@H](C)[C@H](NC(=O)[C@H](C)NC(=O)CNC(=O)[C@H](Cc1ccccc1)NC(=O)[C@H](CC(N)=O)NC(=O)[C@@H]1CCCN1C(=O)[C@H](CO)NC(=O)[C@H](CO)NC(=O)[C@H](Cc1c[nH]cn1)NC(=O)[C@H](CCCNC(=N)N)NC(=O)[C@H](CC(C)C)NC(=O)[C@H](Cc1ccccc1)NC(=O)[C@H](Cc1c[nH]cn1)NC(=O)[C@H](C)NC(=O)[C@H](CC(C)C)NC(=O)[C@H](CCCNC(=N)N)NC(=O)[C@H](CCC(N)=O)NC(=O)[C@@H](NC(=O)[C@H](C)NC(=O)[C@@H]1CSSC[C@H](NC(=O)[C@@H](N)CCCCNC(=O)CC[C@H](NC(=O)CCCCCCCCCCCCCCCCCCC(=O)O)C(=O)O)C(=O)N[C@@H](CC(N)=O)C(=O)N[C@@H]([C@@H](C)O)C(=O)N[C@@H](C)C(=O)N[C@@H]([C@@H](C)O)C(=O)N1)[C@@H](C)O)C(=O)N1CCC[C@H]1C(=O)N[C@@H](CO)C(=O)N[C@@H](CO)C(=O)N[C@H](C(=O)N[C@@H](CC(N)=O)C(=O)N[C@H](C(=O)NCC(=O)N1CCC[C@H]1C(=O)N[C@@H](CC(N)=O)C(=O)N[C@H](C(=O)N1CCC[C@H]1C(N)=O)[C@@H](C)O)C(C)C)[C@@H](C)O
B5: N^ε1-[(4S)-4-carboxy-4-(19-carboxynonadecanoylamino)butanoyl]-[His14,Arg17,Pro21,Pro27,Pro31,Pro34]-h-amylin (peptide)
peptide: K([γGlu-C20 diacid])CNTATCATQRLAHFLRHSSPNFGAIPSSTPVGPNTY-NH2
modifications: disulfide 2-7; N-terminus assumed
SMILES: CC[C@H](C)[C@H](NC(=O)[C@H](C)NC(=O)CNC(=O)[C@H](Cc1ccccc1)NC(=O)[C@H](CC(N)=O)NC(=O)[C@@H]1CCCN1C(=O)[C@H](CO)NC(=O)[C@H](CO)NC(=O)[C@H](Cc1c[nH]cn1)NC(=O)[C@H](CCCNC(=N)N)NC(=O)[C@H](CC(C)C)NC(=O)[C@H](Cc1ccccc1)NC(=O)[C@H](Cc1c[nH]cn1)NC(=O)[C@H](C)NC(=O)[C@H](CC(C)C)NC(=O)[C@H](CCCNC(=N)N)NC(=O)[C@H](CCC(N)=O)NC(=O)[C@@H](NC(=O)[C@H](C)NC(=O)[C@@H]1CSSC[C@H](NC(=O)[C@@H](N)CCCCNC(=O)CC[C@H](NC(=O)CCCCCCCCCCCCCCCCCCC(=O)O)C(=O)O)C(=O)N[C@@H](CC(N)=O)C(=O)N[C@@H]([C@@H](C)O)C(=O)N[C@@H](C)C(=O)N[C@@H]([C@@H](C)O)C(=O)N1)[C@@H](C)O)C(=O)N1CCC[C@H]1C(=O)N[C@@H](CO)C(=O)N[C@@H](CO)C(=O)N[C@H](C(=O)N1CCC[C@H]1C(=O)N[C@H](C(=O)NCC(=O)N1CCC[C@H]1C(=O)N[C@@H](CC(N)=O)C(=O)N[C@H](C(=O)N[C@@H](Cc1ccc(O)cc1)C(N)=O)[C@@H](C)O)C(C)C)[C@@H](C)O

For one experiment, the target named is T1, human amylin 3(a) receptor (human calcitonin receptor + RAMP-3) (human, UniProt P30988 25-474; O60896 24-148, limits assumed).
T1 sequence (looked up) 1: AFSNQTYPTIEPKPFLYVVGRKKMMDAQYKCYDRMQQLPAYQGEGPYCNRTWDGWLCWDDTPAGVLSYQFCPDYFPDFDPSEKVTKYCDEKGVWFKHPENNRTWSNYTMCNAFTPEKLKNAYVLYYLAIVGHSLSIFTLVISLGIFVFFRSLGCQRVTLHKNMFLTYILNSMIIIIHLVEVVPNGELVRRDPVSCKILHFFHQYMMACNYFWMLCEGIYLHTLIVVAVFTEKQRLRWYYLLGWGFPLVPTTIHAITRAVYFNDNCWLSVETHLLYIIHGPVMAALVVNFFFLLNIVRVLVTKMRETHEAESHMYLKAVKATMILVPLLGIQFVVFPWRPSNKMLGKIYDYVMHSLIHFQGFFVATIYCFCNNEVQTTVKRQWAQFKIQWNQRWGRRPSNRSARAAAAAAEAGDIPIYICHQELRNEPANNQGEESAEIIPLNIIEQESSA
T1 sequence (looked up) 2: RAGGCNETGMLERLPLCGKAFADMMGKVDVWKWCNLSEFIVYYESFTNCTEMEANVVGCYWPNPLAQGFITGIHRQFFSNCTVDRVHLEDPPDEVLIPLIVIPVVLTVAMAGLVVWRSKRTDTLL
Briefly: cell-based or functional assay.
Regarding B1, the “hAmylin-R funct. EC50 (pM)” value was 101 pM.

As to B2, the “hAmylin-R funct. EC50 (pM)” value turned out to be 105 pM.

On to B3, for which the “hAmylin-R funct. EC50 (pM)” value turned out to be 132 pM.

On to B4, for which the “hAmylin-R funct. EC50 (pM)” value was 52 pM.

In the case of B5, the “hAmylin-R funct. EC50 (pM)” value is 71 pM.

For another experiment, the target named is T2, human calcitonin receptor (human, UniProt P30988 25-474).
T2 sequence (looked up): T1 sequence (looked up) 1
Briefly: cell-based or functional assay.
On to B1, for which the “Ratio hCT/hAmylin funct.” value was 1.8.

As to B2, the “Ratio hCT/hAmylin funct.” value amounted to 0.9.

On to B3, for which the “Ratio hCT/hAmylin funct.” value was found to be 0.8 and the “hCTR funct. EC50 (pM)” value was determined as 102 pM.

As to B4, the “Ratio hCT/hAmylin funct.” value was 0.8.

Turning to B5, the “Ratio hCT/hAmylin funct.” value was found to be 4.9.

The record behind these values is patent publication US20140087995A1 (published 2014).
